Experiment: soluble on expression in E. coli; label from the status in PepcDB or PDB records

| Sequence | soluble on expression in E. coli |
| --- | --- |
| MSLIMKVVVKVGSNLLVGSSGLRKSYIAELCREVARLKSQGHEISIITSGARAAGFTYLGKGKRTQDLHIKQALCAVGQVQLMKVYENAFDFYGIKIAQILLTRDTFSNRKRYLNLRNTLIGLSEFDVVPIVNENDTVATEEITLGDNDTLAAMFSIAWDADFLVLFTTVDGVIDENGKLVERFDESVKLKDMGKSSWGTGGIRSKIESALMASRCGVKATICSGNDVSNLTRFVKGEPVGTVFEPQGRLKAKKAWIAFLSEPAGKIYVNKGAEEALKSGNSLLPVGVTGVEGTFDVGDVVEIVNEEGELVGRGIVNYSSSDLEKIAGHKSSDLKKILGYEGNKVVVHIDNMWVAEGHHHHHH | soluble |
| VPRIAEVRDAAEPSSEEQRARHVRMLEAAIELATEKELARVQMHEVAKRAGVAIGTLYRYFPSKTHLFVAVMVDQIDRMGVGFKKSAPPGESPQDAVYNVLVRATRGLLRRPALSTAMIQSTSTANVASVPDAGKVDRAFRQIMLDAAGIEHPTEEDLTALRLLVQLWFGVIQSCLNGRVSIPDAESDIRRACDLLLVNLSHR | soluble |
| MTESFADLFEQSLQTLEFRPGSIVRGTVVAIENGMVLVDAGLKSESPIPAEQFKNAQGVLEIAVGDEVDVALDSVEDGFGETQLSREKAKRHEAWIVLEKAYEDAETVIGIINGKVKGGFTVELNGIRAFLPGSLVDVRPVRDTAHLEYKELEFKVIKLDQKRNNVVVSRRAVIESESSAERDALLENLQEGQAVKGIVKNLTDYGAFVDLGGVDGLLHITDMAWKRVKHPSEIVNVGDEINVKVLKYDRERTRVSLGLKQLGEDPWLEISKRYPENTKLTGRVTNLTDYGCFVEIEEGVEGLVHVSEMDWTNKNIHPSKVVNLGDEVEVLVLDIDEERRRISLGLKQCKTNPWDDFATRYNKGDKVSGKIKSITDFGIFIGLDGGIDGLVHLSDISWNGTGEDAVSEYKKGDEIHAVVLSVDPERERISLGVKQTEDDPFNAYLADKKKGTIVHGTVSAVDAKGVTVELADTVEGYIRVADISRERIEDASTVYSVGDAIEAKFMGVDRKNRSISLSIKAKDEAEEKEVMATLNKQEDAVISNAMAEAFKAARKLEHHHHHH | soluble |
| MGSDKIHHHHHHMKMHVAFVHRRGFGQFAALARHLAEAGNEVTLVTETVDQRIPSVRVVRHRAEPGPQPNPHIARHLGVPDHHVRIGHRVAETFDAMGRLGQSPDIVLGHIGWGSMMFVKDVLPRVPALGYCEFFYRSEGADVGFAPDDRPDSETRKRLRLRNIAQLLSLEAMDGGISPTNWQKSLYPADARQRIAVCHEGVDTRRFRPDPAASLKLPDGRVLKAGDPVVTFVARDLEPYRGFPQALEAAAKVVRRHPDALFVFVGGDGVSYGAPPPGGGSWKDHLLASLDVPRERLIFPGVVPHSVLRQLFQISAAHLYLTYPFVLSWSVLEAMACGALVIGSDTAPVQEVIRSGRNGLLVPFFDTDALAETIVGALNRPDNFRELRGAARRTVEQRFRLDDCLARQLTLIGNLTGRNAAQAKETQFV | not soluble |
| MWFFNKNLKVLAPCDGTIITLDEVEDEVFKERMLGDGFAINPKSNDFHAPVSGKLVTAFPTKHAFGIQTKSGVEILLHIGLDTVSLDGNGFESFVTQDQEVNAGDKLVTVDLKSVAKKVPSIKSPIIFTNNGGKTLEIVKMGEVKQGDVVAILK | soluble |
| MEHNQEIMEQFLKLLSENGRAGQSEDLSRLLFYMDGMNRQLDAVRQELQTVKVQLAQAQDTPQKTVLQGMVDGLQSKVRQAQEKLDSLREKIMQCAANAVESFKRVGVTALDKAVSAMGIHKTLEAVQQNISGSLDDARKSIKKVETLGHELRSVGGHLKNAGRAVAGRETQAVDGGQEGRFQAAFLAPMRTAYKMLSSMNNTTLAAIGNVERLETAAEAVREAKKPPVRQTETQEKEQVKELEHKEEPTETQRREKPSIRQTLTEKSEPMDVSDILSDPANIQIFDTVLEESCRQWCDCIGDAPERASGKGFASFFYEVFEQKEQEYKAELKADTRSEKPSIRKALNEKKAEAAARPSPEPERKAPEAAR | not soluble |
| MSRDIDYGNLMHTAMRGLIKTVLADVAQHGLPGAHHFFITFDTRYEGVQLADWLADRYPGEMTIVMQHWYENLDVGEDGFAITLNFGDSPEPLYIPYDAIRTFVDPSVEFGLRFESPDFDEDDEDDIEVEEEPDAPKPDAEVVSLDSFRKPLEHHHHHH | soluble |
| MGSDKIHHHHHHMERFPYEKLPESELKELKELGRLCRGDILKMTYIANSGHPGGSMSSIDLYLTVFKYAKLRPVDDPARDRIVISHGHTSPGVYAAMARLGFVDLDEVLAGFRHPASVFEGHVTRGVGIIDWTTGNLGQGLSAGLGFALASRFTGKDYHVFVLMSDAEQAKGQVAEARRVAKKYGVTNLTVIIDYNDAQISGRARDVMPVNIKENYLADGWRVIEIDGHDYEQIYLALKEAVEDELNPVAIIAKTVMGKGVSFMENEVKYHGKPLNREELEKALAELGIENDVDVYIEKRKQLPVEKHKKVYKTYPIKIDTGEPITYTSPTDNRSAFGKAILDLVKKNVNNPETTPIVAVDCDLKGSVKLDLLDKEFPERLLEVGVQEHNAAAMAGALSAEGVITFFADFGVFGISETYNQHRLNAINGTNLKVVVTHCGLNVGEDGKTHHGLDYVSGPMNWYGFKVIVPGDPNQTDRVVRYAAKEYGNFVIAMGRSKLPIILDENGKPFFGEGYTFEYGKIDVVRKGDDAVIITYGSTLCEAVNAADELKKEGVNVAVLNVSCPVDLDIETLKMVDGKPVLVVEDHNVFTGLGSFLGTTLLENGIIPKKYVRVGVPEFAVSGSYTMLYKLYGLDKDGIISRLREML | not soluble |
| PYAKGNFKAYEQELIGRFKHGESIHSDSIRFPDSLRYKTLVTGRTVYGGGGIMPDLFIPTDTALFNKLHRELLNKGIFNRAVLKYVDAHRQKLRQRFPDRQSYATFSIPEELTESLKAFAEAEKITWSTELFAQAEELIKCQLHAYIARDILGENDFFYFFNRMDKEYIKALDLLNDPDEYKRLLGK | not soluble |
| MPTVSVKRDLLFQALGRTYTDEEFDELCFEFGLELDEITSEKEIISKEQGNVKAAGASDVVLYKIDVPANRYDLLCLEGLVRGLQVFKERIKAPVYKRVMPDGKIQKLIITEETAKIRPFAVAAVLRNIKFTKDRYDSFIELQEKLHQNICRKRALVAIGTHDLDTLSGPFTYTAKRPSDIKFKPLNKTKEYTACELMNIYKTDNHLKHYLHIIENKPLYPVIYDSNGVVLSMPPIINGDHSRITVNTRNIFIECTGTDFTKAKIVLDIIVTMFSEYCENQFTVEAAEVVFPNGKSHTFPELAYRKEMVRADLINKKVGIRETPENLAKLLTRMYLKSEVIGDGNQIEIEIPPTRADIIHACDIVEDAAIAYGYNNIQMTLPKTYTIANQFPLNKLTELLRHDMAAAGFTEALTFALCSQEDIADKLGVDISATKAVHISNPKTAEFQVARTTLLPGLLKTIAANRKMPLPLKLFEISDIVIKDSNTDVGAKNYRHLCAVYYNKNPGFEIIHGLLDRIMQLLDVPPGEDKGGYVIKASEGPAFFPGRCAEIFARGQSVGKLGVLHPDVITKFELTMPCSSLEINIGPFL | soluble |
| MENLKNVAPIEDFNWDAYENGEAVTSASHEDLEKAYDGTLNKVNDREVVDGTVIAMNKREVVVNIGYKSDGIIPLNEFRYNPDLKVGDTVEVYIENQEDKKGQLVLSHRKARATRSWDRVNAALENEEIIKGFIKCRTKGGMIVDVFGIEAFLPGSQIDVKPIRDYDVFVGKTMEFKVVKINQEFKNVVVSHKALIEAELEQQKKEIIGKLEKGQVLEGTVKNITSYGVFIDLGGVDGLIHITDLSWGRVSDPKEVVELDQKLNVVILDFDDEKKRIALGLKQLTPHPWDALDTDLKVGDKVKGKVVVMADYGAFIEIATGVEGLIHVSEMSWSQHLRSAQDFMKVGDEVEAVVLTLDREERKMSLGIKQLKQDPWETIEEKYPVGSKHTAKVRNFTNFGVFVEIEEGVDGLIHISDLSWTKKVKHPSEFTQIGADIEVQVLEIDKENRRLSLGHKQLEENPWDVFETVFTVGSVHEGTIIEMLDKGAVVALPYGVEGFATPKHLVKEDGSQAQLDEKLEFKVIEFNKDAKRIILSHSRIFEDVAKAEERAEKKAASGAKKSSNNKREDAPMIQNQAASTTLGDIDALAALKEQLEGKKLEHHHHHH | soluble |
| MAEQRSNIMRLPPSGYRLHRFPPLAQPVAVDEEFGLDNQGWQESQVDIQQQLEAGFQQGLQQGHEEGLRQGIEQGKQQGLLDGQKEGFQKGFVSGEQAGKQGFLEAAKPVNDLFQALSRWQSEKEQQQRHMICELVQKVAQQVIRAELTLMPQQILALVDETLSAMPGKAETVTVHLNPQDLERITHINADLPKSWKLVANNELPIGGCQLVTDDAEADASCDSRLEACMDNVKQHLLDEVSIPQVESENELEHHHHHH | soluble |
| AIAHGVEFAPLERQHGSQVLALLRGTLLVPLPRLHQRLEEAYERDARLGLAQVALCRLAGNAEKVVGVLLARVATRRTCCAQVYIDAVAVDAVFQGQGIGSRLLLRVLTPCLPDGLEVREVFLHTPLQATELVAFYRSCGFESDDEVIDNYYPRRWMPQAQALVLRWRPPTAAQHQHEERKGPQDADVS | soluble |
| MSLAPRPRILICEDDPDIARLLNLMLEKGGFDSDMVHSAAQALEQVARRPYAAMTVDLNLPDQDGVSLIRALRRDSRTRDLAIVVVSANAREGELEFNSQPLAVSTWLEKPIDENLLILSLHRAIDNMAEGKEGYLTITTDPNSSSVDKLAAALEHHHHHH | soluble |
| MSSQSIDDKFMSITQMKNLIHYVKKNDALSHLCIYILIITGSRFKPVQHLRYEDLNFKKSCIHLNDTKNKYSKRNVKVRIKDLEYIQSVINKHPINQNGYIFHNFINFISYSAINDVLVRFCLKYKYDKYTLKSLRHTHCSYLLAKGISIQYISKRLGHADIHTTLKIYSHLIKEFEDSENSLIEKNLNDLFSDLEHHHHHH | not soluble |
| MGSDKIHHHHHHMLEVPVDRPVEALTIALLRDVKHACAQLGAKFVLAGATARDILMWHLHDIRAPVATRDVDVAVCAVSWESHDALIELLVQTQRFRRHSKQQQKLLFKRSAEDYEGELDIVPFGQIEGPPGEIHWPPDGDIVMTVLGFQEAVDTAQPVSIGEGLVVPVVTLPAFVLLKLIAWKDRRLMKNTDSADLLFVLRNYIDAGNIERTYEQATDLLKAANFDAGLAAAGLLGRDVRGLAYPDTRAALRALLQSADAYETLRLDLQARAAMLLGGFIDDSDALLAAFARELLTEENGSLNGTGPQVGSTGARA | not soluble |
| IPEEGGDELGAMARTLSLFRESAIEKKKLEDEAERQRRTIAAALEVISDGFVLYDSEDRILVANSKYCEIFPSHKPNTLRGRSFREIVEQNLEMGQVDLEGKSPQEWVDERVRLHRDPAGLVDEKRFGDKWVRISKRKIPD | not soluble |
| MGSSHHHHHHSSGRENLYFQGHMSANVQEAANAAIEPASFVKVPMPEPPSSLQQLINDWQLIKHREGGYFKETDRSPYTMEVEKPVNGGSGNTEMVTRNQSTLIYYLLTPDSPIGKFHKNINRIIHILQRGKGQYVLVYPDGQVKSFKVGFDYKNGEVSQWVVPGGVFKASFLLPNEEFDNGFLISEVVVPGFDFEDHTFLKGEDELKHLVGPEKAAELAFLA | soluble |
| MRLKKLPIRRKMPMELAYIEKLFREEVGLDIKEHKDKAEQISETVVEIYEELLRKGIENANYNGRDYVSYYDLPITEDLERYMNRFIQDRGEEVLKAFVDYLAKLEEELLKAEEALPPLDEELHQKKADILGGIMLMFASVAKQINGDRKLYAESIPVTREVLRTMI | not soluble |
